According to patent publication US20230192897A1 (NUMAB THERAPEUTICS, published 2023):
Values joined by “and” are separate entries in the source; they are usually repeats but may differ in a detail not shown here. Equal entries are not always repeated.

Assays:
Fc tagged human PDL1 = biological target: T1, Fc tagged human PDL1 (human, UniProt Q9NZQ7 19-239); test: SPR
T1 construct: Bought (Sino Biological, cat. 10084-H02H); captured on the SPR chip; also called PDL1-Fc chimeric protein
Protocol: (§1) Affinity to PDL1 of the different species was determined by SPR measurements using a Biacore T200 device (GE Healthcare). An antibody specific for the Fc region of human IgGs was immobilized on a sensor chip (CM5 sensor chip, GE Healthcare) by amine-coupling. For all formats, with the exception of the Fc containing Morrison formats, PDL1-Fc chimeric protein from different species were captured by the immobilized antibody.
(§2) Three-fold serial dilutions of the molecules specific for PDL1 (0.12-90 nM) were injected into the flow cells for three minutes and dissociation was monitored for 10 minutes. After each injection cycle, surfaces were regenerated with one injection of a 3 M MgCl₂ solution. The apparent dissociation (kd) and association (kₐ) rate constants and the apparent dissociation equilibrium constant (KD) were calculated using one-to-one Langmuir binding model. Affinity to CD137 of the different species was determined using the identical setup as for PDL1 with the exception that CD137-Fc chimeric protein from different species were captured by the immobilized antibody.

Fc tagged human CD137 = biological target: T2, Fc tagged human CD137 (human, UniProt Q07011 24-186); test: SPR
T2 construct: also called CD137-Fc chimeric protein
Protocol: as §1, §2

Row | Binder | Kd (Fc tagged human PDL1) [pM] | Kd (Fc tagged human CD137) | also measured
1 | PRO1392 (scFv, also called scFv of 33-03-G02 sc18) scFv: DIQMTQSPSSLSASVGDRVTITCQASQSINDYLAWYQQKPGKAPKLLIYKASTLASGVPSRFSGSGSGTDFTLTISSLQPEDFATYYCQQGYIITDIDNVFGTGTKVTVLGGGGGSGGGGSGGGGSGGGGSQVQLQESGPGLVKPSETLSLTCKASGFSFSSGYDMCWVRQPPGKGLEWIACVVAGSVDITYYASWAKGRVTISKDSSKNQVSLKLSSVTAADTAVYYCARKDAYSDAFNLWGQGTLVTVSS | 9.94 |  | 
2 | PRO1183 (scFv, also called scFv of 33 03-G02 sc03) scFv: DFQLTQSPSSLSASVGDRVTITCQASQSINDYLAWYQQKPGKSPKLLIYKASTLASGVPSRFSGSGSGTDFTLTISSLQPEDFATYYCQQGYIITDIDNVFGTGTKVTVLGGGGGSGGGGSGGGGSGGGGSQSQLQESGPGLVKPSETLSLTCKASGFSFSSGYDMCWVRQPPGKGLEWIACVVAGSVDITYYASWAKGRVTISKDSSKNQVSLKLSSVTAADTAVYFCARKDAYSDAFNLWGQGTLVTVSS | < 2.09 |  | 
3 | PRO908 (scFv, also called scFv of 37-20-B03 sc01) scFv: DIQMTQSPSSLSASVGDRVTITCQASQSIGTYLAWYQQKPGKAPKLLIYRAFILASGVPSRFSGSGSGTDFTLTISSLQPEDFATYYCQSNFYSDSTTIGPNAFGTGTKVTVLGGGGGSGGGGSGGGGSGGGGSQVQLQESGPGLVKPSETLSLTCKVSGFSFNSDYWIYWIRQPPGKGLEWIGSIYGGSSGNTQYASWAQGRVTISVDSSKNQFSLKLSSVTAADTAVYYCARGYVDYGGATDLWGQGTLVTVSS | 5.94 |  | 
4 | PRO1347 (scFv, also called scFv of 37-20-sc09.1; 37-20-B03-sc09) scFv: DIQMTQSPASLSASVGDRVTITCQASQSIGTYLAWYQQKPGKPPKLLIYRAFILASGVPSRFSGSGSGTDFTLTISSLQPEDFATYYCQSNFYSDSTTIGPNAFGTGTKVTVLGGGGGSGGGGSGGGGSGGGGSEVQLVESGGGLVQPGGSLRLSCAASGFSFNSDYWIYWVRQAPGKGLEWIASIYGGSSGNTQYASWAQGRFTISRDNSKNTVYLQMNSLRAEDTAVYFCARGYVDYGGATDLWGQGTLVTVSS | 9 |  | 
5 | PRO1352 (scFv, also called scFv of 38-02-A04 sc13) scFv: DIQMTQSPSSLSASVGDRVTITCQASQSINNVLAWYQQKPGKAPKLLIYRASTLASGVPSRFSGSGSGTDFTLTISSLQPEDFATYYCQSSYGNYGDFGCGTKVTVLGGGGGSGGGGSGGGGSGGGGSEVQLVESGGGLVQPGGSLRLSCAASGFSFSNSYWICWVRQAPGKCLEWIGCTFVGSSDSTYYANWAKGRFTISRDNSKNTVYLQMNSLRAEDTAVYYCARHPSDAVYGYANNLWGQGTLVTVSS |  | 1470 pM | 
6 | PRO1360 (scFv, anti-CD137 scFv; also called 38-27-A11 sc03 scFv) scFv: DFQLTQSPSSLSASVGDRVTITCQASQSISNRLAWYQQKPGKPPKLLIYSASTLASGVPSRFSGSGSGTDFTLTISSLQPEDFATYYCQSTYYGNDGNAFGTGTKVTVLGGGGGSGGGGSGGGGSGGGGSESQLVESGGGLVQPGGSLRLSCAASGFSFSANYYPCWVRQAPGKGLEWIGCIYGGSSDITYDANWTKGRFTISRDNSKNTVYLQMNSLRAEDTAVYFCARSAWYSGWGGDLWGPGTLVTVSS |  | 234 pM | 
7 | PRO1359 (scFv, anti-CD137 scFv; also called 38-27-A11 sc02 scFv) scFv: DIQMTQSPSSLSASVGDRVTITCQASQSISNRLAWYQQKPGKAPKLLIYSASTLASGVPSRFSGSGSGTDFTLTISSLQPEDFATYYCQSTYYGNDGNAFGTGTKVTVLGGGGGSGGGGSGGGGSGGGGSEVQLVESGGGLVQPGGSLRLSCAASGFSFSANYYPCWVRQAPGKGLEWIGCIYGGSSDITYDANWTKGRFTISRDNSKNTVYLQMNSLRAEDTAVYYCARSAWYSGWGGDLWGQGTLVTVSS |  | 3240 pM and 3070 pM | 
8 | PRO966 (other, trispecific scDb-scFv; also called PRO1052; 38-27-C05 sc01 scDb-i/33-03-G02 sc01 scDb-o/19-01-H04-sc03 scFv) DIQMTQSPSSLSASVGDRVTITCQASQSINDYLAWYQQKPGKAPKLLIYKASTLASGVPSRFSGSGSGTDFTLTISSLQPEDFATYYCQQGYIITDIDNVFGTGTKVTVLGGGGGSQVQLQESGPGLVKPSETLSLTCKVSGFSFNNDYDMCWIRQPPGKGLEWIGCIDTGDGSTYYASWAKGRVTISVDSSKNQFSLKLSSVTAADTAVYYCAREAASSSGYGMGYFDLWGQGTLVTVSSGGGGSGGGGSGGGGSGGGGSIQMTQSPSSLSASVGDRVTITCQSSQSVYDNNWLAWYQQKPGKAPKLLIYRASNLASGVPSRFSGSGSGTDFTLTISSLQPEDFATYYCQGTYLSSNWYWAFGTGTKVTVLGGGGGSQVQLQESGPGLVKPSETLSLTCKVSGFSFSSGYDMCWIRQPPGKGLEWIGCVVAGSVDITYYASWAKGRVTISVDSSKNQFSLKLSSVTAADTAVYYCARKDAYSDAFNLWGQGTLVTVSSGGGGSGGGGSIQMTQSPSSLSASVGDRVTITCQSSESVYSNNQLSWYQQKPGQPPKLLIYDASDLASGVPSRFSGSGSGTDFTLTISSLQPEDFATYYCAGGFSSSSDTAFGGGTKLTVLGGGGGSGGGGSGGGGSGGGGSEVQLVESGGGLVQPGGSLRLSCAASGFSLSSNAMGWVRQAPGKGLEYIGIISVGGFTYYASWAKGRFTISRDNSKNTVYLQMNSLRAEDTATYFCARDRHGGDSSGAFYLWGQGTLVTVSS |  | 2200 pM | koff (Fc tagged human CD137): 0.0022 s⁻¹; binding result (Fc tagged human PDL1): binds
